Tests used:
[1] = molecular target: PxP(Mcp1ct)-VABct(1,944-2,635)-His6 (C. thermophilum); assay: SEC; Superdex 200 gel filtration in buffer A (20 mM Hepes pH 7.8, 500 mM NaCl, 1 mM TCEP, 10% glycerol); monomer or dimer read from the elution profile
[2] = molecular target: PxP(Mcp1ct)-VABct(1,944-2,635)-His6 (C. thermophilum); assay: negative stain EM; class averages of purified constructs; monomer or dimer
[3] = molecular target: the molecule itself; assay: SEC; Superdex 200 gel filtration in buffer A (20 mM Hepes pH 7.8, 500 mM NaCl, 1 mM TCEP, 10% glycerol); monomer or dimer read from the elution profile

| stoichiometry N [1] | stoichiometry N [2] | Molecule | stoichiometry N [3] |
| --- | --- | --- | --- |
| 2 | 2 | PxP(Mcp1ct)-VABct(1,944-2,635)-His6 |  |
|  |  | PxP(Ypt35sc)-VABsc(1,869-2,545)-His6 (other, S. cerevisiae, UniProt P38815 2-22, looked up, Ypt35p of S. cerevisiae, Pro-X-Pro motif, residues 2-22; also called PXP-VABsc; source: E. coli BL21 (DE3), purified (Ni-NTA, Superdex 200)) SDKISFLPPEPIQLLDEDSTEKPYQLVNDTELDFDVWIQDKTTEDNKNEVVLLKANTSLPWEFEDWRSIREKLDIDKSKNILGVCVSGQNYKTIMNIDATTEGENLHVLSPPRNNVHNRIVCEARCDENNVKIITFRSTLVIENTTSTEIELLVDSKDPNKPSLKYAIKPHQSKSVPVEYAYDSDIRIRPASEDIYDWSQQTLSWKSLLSNQMSIFCSSKEDSNQRFHFEIGAKYDEREPLAKIFPHMKIVVSASMTIENLLPADINFSIFDKREEKRTDFLKTGESMEVHHISLDSFLLMSVQPLQDEASASKPSIVNTPHKSPLNPEDSLSLTLSGGQNLLLKLDYKNIDGTRSKVIRIYSPYIIMNSTDRELYIQSSLLNIAQSKILLENEKRYTIPKMFSFDKEDDKSNRARIRFKESEWSSKLSFDAIGQSFDASVRIKNKEQESNLGINISEGKGKYLLSKVIEIAPRYIISNTLDIPIEVCETGSMDVQQIESNITKPLYRMRNIVDKQLVLKFLGGDSNWSQPFFIKNVGVTYLKVLKNSRHKLLKIEILLDKATIFIRIKDGGDRWPFSIRNFSDHDFIFYQRDPRKVSDPYKDDQSNESSSRSFKPIFYRIPSKSIMPYAWDFPTAKEKYLVLESGTRTREVRLAEIGELPPLRLDKRSKDKPAPIVGLHVVADDDMQALVIVNYKAN | 2 |
|  |  | PxP(Spo71sc)-VABsc(1,869-2,545)-His6 (other, S. cerevisiae, UniProt Q03868 380-400, looked up, Spo71p of S. cerevisiae, Pro-X-Pro motif, residues 380-400; also called PXP-VABsc; source: E. coli BL21 (DE3), purified (Ni-NTA, Superdex 200)) SHLPFINILPPWPTELTEEERKPYQLVNDTELDFDVWIQDKTTEDNKNEVVLLKANTSLPWEFEDWRSIREKLDIDKSKNILGVCVSGQNYKTIMNIDATTEGENLHVLSPPRNNVHNRIVCEARCDENNVKIITFRSTLVIENTTSTEIELLVDSKDPNKPSLKYAIKPHQSKSVPVEYAYDSDIRIRPASEDIYDWSQQTLSWKSLLSNQMSIFCSSKEDSNQRFHFEIGAKYDEREPLAKIFPHMKIVVSASMTIENLLPADINFSIFDKREEKRTDFLKTGESMEVHHISLDSFLLMSVQPLQDEASASKPSIVNTPHKSPLNPEDSLSLTLSGGQNLLLKLDYKNIDGTRSKVIRIYSPYIIMNSTDRELYIQSSLLNIAQSKILLENEKRYTIPKMFSFDKEDDKSNRARIRFKESEWSSKLSFDAIGQSFDASVRIKNKEQESNLGINISEGKGKYLLSKVIEIAPRYIISNTLDIPIEVCETGSMDVQQIESNITKPLYRMRNIVDKQLVLKFLGGDSNWSQPFFIKNVGVTYLKVLKNSRHKLLKIEILLDKATIFIRIKDGGDRWPFSIRNFSDHDFIFYQRDPRKVSDPYKDDQSNESSSRSFKPIFYRIPSKSIMPYAWDFPTAKEKYLVLESGTRTREVRLAEIGELPPLRLDKRSKDKPAPIVGLHVVADDDMQALVIVNYKAN | 2 |
|  |  | PxP(Mcp1sc)-VABsc(1,869-2,545)-His6 (other, S. cerevisiae, UniProt Q12106 2-20, looked up, Mcp1p of S. cerevisiae, Pro-X-Pro motif, residues 2-20; also called PXP-VABsc; source: E. coli BL21 (DE3), purified (Ni-NTA, Superdex 200)) IKLHEVPPEPVDPASLPHDKPYQLVNDTELDFDVWIQDKTTEDNKNEVVLLKANTSLPWEFEDWRSIREKLDIDKSKNILGVCVSGQNYKTIMNIDATTEGENLHVLSPPRNNVHNRIVCEARCDENNVKIITFRSTLVIENTTSTEIELLVDSKDPNKPSLKYAIKPHQSKSVPVEYAYDSDIRIRPASEDIYDWSQQTLSWKSLLSNQMSIFCSSKEDSNQRFHFEIGAKYDEREPLAKIFPHMKIVVSASMTIENLLPADINFSIFDKREEKRTDFLKTGESMEVHHISLDSFLLMSVQPLQDEASASKPSIVNTPHKSPLNPEDSLSLTLSGGQNLLLKLDYKNIDGTRSKVIRIYSPYIIMNSTDRELYIQSSLLNIAQSKILLENEKRYTIPKMFSFDKEDDKSNRARIRFKESEWSSKLSFDAIGQSFDASVRIKNKEQESNLGINISEGKGKYLLSKVIEIAPRYIISNTLDIPIEVCETGSMDVQQIESNITKPLYRMRNIVDKQLVLKFLGGDSNWSQPFFIKNVGVTYLKVLKNSRHKLLKIEILLDKATIFIRIKDGGDRWPFSIRNFSDHDFIFYQRDPRKVSDPYKDDQSNESSSRSFKPIFYRIPSKSIMPYAWDFPTAKEKYLVLESGTRTREVRLAEIGELPPLRLDKRSKDKPAPIVGLHVVADDDMQALVIVNYKAN | 2 |
